According to US20250223336A1:

Tests used:
[1] = target: SARS-COV-2 spike protein on virus-like particles (VLPs) (SARS-COV-2) (UniProt P0DTC2); assay: cell-based or functional assay
[2] = target: wild type SARS-COV-2 spike receptor binding domain (RBD), 6His-Strep-TEV-RBD construct, refolded from E. coli (SARS-COV-2) (UniProt P0DTC2)

Question: Which results are given for “LCB3 de novo designed miniprotein (from Cao et al., synthesised through recombinant expression in E. coli) (designed binder)”?
Answer: reduction in FITC signal (VLP binding to A549 cells) [1]: 84%; Kd [2]: 926 nM; Response Amplitude [2]: 73.5
